Assay results published in patent publication US20200010507A1.
Where no end group is shown, it is not given here. [ ]: non-standard residue; d: D form. NMeE = CN[C@@H](CCC(=O)O)C(=O)O

Target: ex vivo seeds extracted from the hearts of eight ATTR patients
Test: cell-based or functional assay

B1: TabF2 (peptide)
peptide: RRRRHVAHPFV[NMeE]FTE
**Q.** For B1, which peptide concentration giving full inhibition of amyloid seeding (tested as the cocktail TabFH2) is on record?
**A.** 360 µM
